Test results published in PMC10127586.

What was measured:
Assay in all cases: SPR
pVRC07-523-LS = molecular target: pVRC07-523-LS
pPGT121 = molecular target: pPGT121
pPGT121-LS = molecular target: pPGT121-LS
pPGT121-YTE = molecular target: pPGT121-YTE

Measured: Kd

Rhesus macaque FcγR IIIa-1 (from UniProt A3RFZ7 21-254) (receptor)
> 20 µM: pVRC07-523-LS | pPGT121 | pPGT121-LS | pPGT121-YTE

Rhesus macaque FcγR IIIa-3 (from UniProt A3RFZ7 21-254) (receptor)
> 20 µM: pVRC07-523-LS | pPGT121 | pPGT121-LS | pPGT121-YTE

Rhesus macaque FcγR IIa-2 (receptor)
> 20 µM: pVRC07-523-LS | pPGT121 | pPGT121-LS | pPGT121-YTE

Rhesus macaque FcγR IIa-4 (receptor)
> 20 µM: pVRC07-523-LS | pPGT121 | pPGT121-LS | pPGT121-YTE

Rhesus macaque FcγR IIb-1 (receptor)
> 20 µM: pVRC07-523-LS | pPGT121 | pPGT121-LS | pPGT121-YTE
